Source: patent US20250333531A1 (NORDIC NANOVECTOR ASA, published 2025)
Residue numbers refer to the chain shown, from its start. In names and notes the source's numbering stands.

Legend:
human CD37 [1] = target: T1, human CD37 (human, UniProt P11049 1-281); test: competitive radioligand binding on Ramos cells; upper end tied by Table 18 to AH02895
T1 construct: whole, on cells; also called CD37 antigen
T1 sequence (looked up): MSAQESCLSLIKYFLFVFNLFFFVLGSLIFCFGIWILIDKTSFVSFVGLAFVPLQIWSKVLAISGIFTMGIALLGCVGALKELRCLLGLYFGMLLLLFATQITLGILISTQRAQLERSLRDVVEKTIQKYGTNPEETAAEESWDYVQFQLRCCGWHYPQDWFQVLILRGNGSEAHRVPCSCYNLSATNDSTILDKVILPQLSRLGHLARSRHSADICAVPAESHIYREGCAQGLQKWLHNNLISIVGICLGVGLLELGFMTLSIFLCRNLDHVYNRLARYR

human CD37 [2] = target: T1, human CD37; test: competitive radioligand binding on Ramos cells; ratio to Ki of NNV009 (assumed 2.3)
Method: (§1) The Eppendorf LoBind tubes 1.5 mL were used to prepare dilutions (working concentrations) of Abs. As much as 0.2 mL of the cell suspension (800 000 cells/tube), after it has been cooled down for 30 min on ice, was aliquoted to glass 12×75 mm counting tubes. Each tube was pre-labeled with a code specifically determining each sample. The tubes with cells were maintained on ice for whole time course of the experiment except for the time when counted on the gamma counter. The tubes were agitated on a planetary shaker at 350 RPM, 4° C. (on ice) for 15 min. […] The tubes were placed on the planetary shaker (GL 064), on ice, and shaken for 4 hours at 350 RPM. After 3.5 hours past from the beginning of incubation, the samples were assayed on Wizard2 gamma counter using protocol “Lu-177 General” (all detectors except for the detector #3 were used). Upon completion the counting, the cells were washed with ice-cold 0.5 mL 0.5% BSAPBS three times. All the tubes were assayed on the Wizard2 gamma counter again using the same sequence and parameters as before the washing.

human CD37 [3] = target: T1, human CD37; test: competitive radioligand binding on Ramos cells against 177Lu-NNV009 (2.7 nM), gamma counting
Method: as §1

[4] = target: FcγRIIIa-V158 on Promega Jurkat effector cells (UniProt P08637 17-254, limits assumed); test: cell-based or functional assay
human CD37 [5] = target: T1, human CD37; test: competitive radioligand binding on Ramos cells; lower end tied by Table 18 to AH02871HC + AH02877LC + V110D
[6] = target: T2, biotinylated truncated soluble human FcγRIIa-H131 (human, UniProt P12318 34-217, biotinylated); test: ELISA: IgG coated at 10000-4.5 ng/ml, biotinylated truncated soluble human FcγRIIa-H131 250 ng/ml pre-complexed with AP-streptavidin, absorbance 405 nm
T2 construct: extracellular domain; Bought
T2 sequence (looked up): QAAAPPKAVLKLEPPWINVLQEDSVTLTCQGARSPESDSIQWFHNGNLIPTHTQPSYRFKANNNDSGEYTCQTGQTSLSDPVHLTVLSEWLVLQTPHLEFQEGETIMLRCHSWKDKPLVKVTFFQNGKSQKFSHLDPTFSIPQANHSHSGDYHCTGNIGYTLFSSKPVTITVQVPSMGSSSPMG
Method: (§2) 96 well EIA/RIA plates (CorningCostar) were coated with 100 μl titrated amounts of IgG variants (10.000-4.5 ng/ml) diluted in PBS and incubated O/N at 4° C. Remaining surface area were blocked with PBS containing 0.05% T and 4% S for 1 h at RT. The plates were washed four times with PBS/T using a Hydrospeed™ plate washer (Tecan). […] Following washing as above, bound receptor was visualized by addition of phosphatase substrate (1 mg/ml in diethanolamine buffer) (Sigma Aldrich). The plates were developed for 15-20 min before the 405 nm absorption values were recorded using a TECAN Sunrise spectrophotometer (Tecan).

[7] = target: T3, human complement factor C1q (human, UniProt P02745 23-245; P02746 28-253; P02747 29-245); test: repeat ELISA: IgG coated at 20000-156.25 ng/ml, human C1q 360 ng/ml, detected with rabbit anti-human C1q and HRP anti-rabbit IgG (y axis printed as Absorbance 405 nm)
T3 construct: Bought
Method: (§3) Remaining surface area were blocked with PBS containing 0.05% T and 4% S for 1 h at RT. The plates were then washed four times with PBS/T using a Hydrospeed™ plate washer (Tecan). Human C1q (Complement Technologies) diluted to 360 ng/ml in veronal buffer (Complement Technologies) were added and incubated for 30 min at 37° C. Detection of bound C1q was performed using a primary anti-human C1q antibody from rabbit (DAKO) diluted 1:10.000 in PBS/T/S and a secondary horseradish peroxidase (HRP) conjugated anti-rabbit IgG antibody diluted 1:5000 in PBS/T/S (GE Healthcare). Binding was visualized by addition of 100 μl TMB substrate (Calbiochem) for 15-20 min before the enzymatic reaction was stopped by addition of 50 μl 1 M HC1. The 450 nm absorption values were recorded using a Sunrise TECAN spectrophotometer (Tecan).

[8] = target: T4, biotinylated truncated soluble human FcγRI (human, UniProt P12314 16-292, biotinylated); test: ELISA: IgG coated at 10000-4.5 ng/ml, biotinylated truncated soluble human FcγRI 250 ng/ml pre-complexed with AP-streptavidin, absorbance 405 nm
T4 construct: extracellular domain; Bought; preformed complex with AP-streptavidin
Method: as §2

[9] = target: T5, biotinylated truncated soluble human FcγRIIIa-V158 (human, UniProt P08637 17-208, biotinylated); test: ELISA: IgG coated at 10000-4.5 ng/ml, biotinylated truncated soluble human FcγRIIIa-V158 250 ng/ml pre-complexed with AP-streptavidin, absorbance 405 nm
T5 construct: extracellular domain; Bought
Method: as §2

[10] = target: T6, biotinylated soluble human FcRn (human, UniProt P55899 24-297; P61769 21-119, biotinylated); test: ELISA: IgG coated at 1000-0.45 ng/ml, biotinylated soluble human FcRn 250 ng/ml pre-complexed with AP-streptavidin, pH 6.0, absorbance 405 nm
T6 construct: extracellular domain; Bought; Beta-2-microglobulin is not mentioned; Used as preformed complex with AP-streptavidin
Method: Remaining surface area were blocked with PBS containing 0.05% T and 4% S for 1 h at RT. The plates were washed four times with PBS/T using a Hydrospeed™ plate washer (Tecan). […] Following washing as above with PBS/T or FcRn binding buffer ([…], 0.1 M NaCl, 0.05% T, pH 6.0), bound receptor was visualized by addition of phosphatase substrate (1 mg/ml in diethanolamine buffer) (Sigma Aldrich). The plates were developed for 20-30 min before the 405 nm absorption values were recorded using a TECAN Sunrise spectrophotometer (Tecan).

[11] = target: T7, biotinylated truncated soluble human FcγRIIIa-F158 (human, UniProt P08637 17-208, biotinylated); test: ELISA: IgG coated at 10000-4.5 ng/ml, biotinylated truncated soluble human FcγRIIIa-F158 250 ng/ml pre-complexed with AP-streptavidin, absorbance 405 nm
T7 construct: extracellular domain; Bought
Method: as §2

[12] = target: T3, human complement factor C1q; test: ELISA: IgG coated at 20000-156.25 ng/ml, human C1q 360 ng/ml, detected with rabbit anti-human C1q and HRP anti-rabbit IgG (y axis printed as Absorbance 405 nm)
Method: as §3

[13] = target: T8, biotinylated truncated soluble human FcγRIIa-R131 (human, UniProt P12318 34-217, biotinylated); test: ELISA: IgG coated at 10000-4.5 ng/ml, biotinylated truncated soluble human FcγRIIa-R131 250 ng/ml pre-complexed with AP-streptavidin, absorbance 405 nm
T8 construct: extracellular domain; Bought
T8 sequence (looked up): T2 sequence (looked up) with H134R
Method: as §2

human CD37 [14] = target: T1, human CD37; test: reference to the competitive binding of Example 6
[15] = target: T9, biotinylated truncated soluble human FcγRIIIb (human, UniProt O75015 17-200, limits assumed, biotinylated); test: ELISA: IgG coated at 10000-4.5 ng/ml, biotinylated truncated soluble human FcγRIIIb 250 ng/ml pre-complexed with AP-streptavidin, absorbance 405 nm
T9 construct: extracellular domain; Bought
Method: as §2

[16] = target: T10, biotinylated truncated soluble human FcγRIIb (human, UniProt P31994 43-217, biotinylated); test: ELISA: IgG coated at 10000-4.5 ng/ml, biotinylated truncated soluble human FcγRIIb 250 ng/ml pre-complexed with AP-streptavidin, absorbance 405 nm
T10 construct: extracellular domain; Bought
T10 sequence (looked up): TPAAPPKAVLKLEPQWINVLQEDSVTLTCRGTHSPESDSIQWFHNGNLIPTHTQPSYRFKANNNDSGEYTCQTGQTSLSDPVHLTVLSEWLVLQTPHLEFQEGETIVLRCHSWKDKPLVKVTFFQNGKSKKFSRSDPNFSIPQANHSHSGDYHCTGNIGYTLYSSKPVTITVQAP
Method: as §2

T3 sequence (P02745 23-245 limits assumed, chain 1 of 3): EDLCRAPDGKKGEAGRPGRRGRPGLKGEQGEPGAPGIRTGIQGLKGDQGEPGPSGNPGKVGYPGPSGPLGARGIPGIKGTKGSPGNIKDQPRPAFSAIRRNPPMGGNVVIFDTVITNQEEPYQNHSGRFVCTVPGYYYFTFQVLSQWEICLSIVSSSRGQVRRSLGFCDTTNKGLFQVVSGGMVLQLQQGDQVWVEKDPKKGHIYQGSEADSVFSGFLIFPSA
T3 sequence (P02746 28-253 limits assumed, chain 2 of 3): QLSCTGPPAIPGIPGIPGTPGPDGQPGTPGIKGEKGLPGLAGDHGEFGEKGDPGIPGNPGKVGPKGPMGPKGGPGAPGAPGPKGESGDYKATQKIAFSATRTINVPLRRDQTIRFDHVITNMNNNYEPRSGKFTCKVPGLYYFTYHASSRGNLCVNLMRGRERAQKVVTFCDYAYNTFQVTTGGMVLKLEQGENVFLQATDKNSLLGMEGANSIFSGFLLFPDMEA
T3 sequence (P02747 29-245 limits assumed, chain 3 of 3): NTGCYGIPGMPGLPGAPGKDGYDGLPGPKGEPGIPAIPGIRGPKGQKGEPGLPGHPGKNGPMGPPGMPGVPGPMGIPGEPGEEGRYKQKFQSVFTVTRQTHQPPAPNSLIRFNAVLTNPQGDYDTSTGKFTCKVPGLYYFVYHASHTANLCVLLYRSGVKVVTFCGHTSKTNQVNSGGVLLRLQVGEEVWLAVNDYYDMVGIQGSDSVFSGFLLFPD
T6 sequence (P55899 24-297 limits assumed, chain 1 of 2): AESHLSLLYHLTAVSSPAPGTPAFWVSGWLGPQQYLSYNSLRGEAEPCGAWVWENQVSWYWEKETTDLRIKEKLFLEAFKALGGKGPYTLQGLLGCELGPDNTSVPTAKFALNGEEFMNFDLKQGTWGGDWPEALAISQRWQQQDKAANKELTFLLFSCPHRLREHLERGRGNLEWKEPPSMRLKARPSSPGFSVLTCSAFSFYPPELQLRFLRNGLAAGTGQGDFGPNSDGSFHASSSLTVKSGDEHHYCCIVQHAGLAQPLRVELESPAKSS
T6 sequence (P61769 21-119 limits assumed, chain 2 of 2): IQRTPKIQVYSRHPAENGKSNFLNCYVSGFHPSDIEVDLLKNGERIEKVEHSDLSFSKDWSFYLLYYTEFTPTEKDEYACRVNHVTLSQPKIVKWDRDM
T4 sequence (P12314 16-292): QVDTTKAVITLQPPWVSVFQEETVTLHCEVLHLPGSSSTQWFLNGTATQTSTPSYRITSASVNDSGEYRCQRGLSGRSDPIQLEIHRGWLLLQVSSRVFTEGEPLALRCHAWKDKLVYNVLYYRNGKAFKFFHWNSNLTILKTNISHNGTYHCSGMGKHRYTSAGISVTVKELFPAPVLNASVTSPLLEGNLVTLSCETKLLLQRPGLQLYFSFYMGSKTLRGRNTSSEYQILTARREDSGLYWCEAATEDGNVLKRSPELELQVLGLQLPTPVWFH
T9 sequence (O75015 17-200 limits assumed): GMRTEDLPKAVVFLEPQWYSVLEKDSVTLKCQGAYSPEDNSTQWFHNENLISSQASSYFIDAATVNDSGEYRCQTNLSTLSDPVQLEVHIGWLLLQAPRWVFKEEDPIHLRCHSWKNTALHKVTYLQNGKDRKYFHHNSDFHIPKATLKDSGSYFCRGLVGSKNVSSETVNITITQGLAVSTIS

B1: AH02895 (antibody, human IgG1, kappa, V domains shown)
VH: QIQLVQSGAEVVKPGASVKVSCKASGYSFTDYNMYWVKQAPGQRLEWMGYIDPYNGDTTYNQKFKGRATITRDTSASTAYIELSSLRSEDTAVYYCARSPYGHYAMDYWGQGTLVTVSS
VL: DIQMTQSPSSLSASVGDRVTITCKASQDVSTAVDWYQQKPGKAPKLLINWASTRHTGVPSRFSGSGSGTDYTLTISSMQPEDFATYYCRQHYSTPFTFGQGTKLEIKR
notes: Humanized IgG1 kappa; also called NNV020 #6
fold affinity relative to NNV009 (human CD37 [1]): 4 to 7 fold | Ki(NNV009)/Ki(NNV020 var.) (human CD37 [2]): 6.97 fold | EC50 (human CD37 [3]): 0.718 nM | Ki (human CD37 [3]): 0.33 nM

B2: NNV023 (antibody, human IgG1)
heavy: not shown
light: DIQMTQSPSSLSASVGDRVTITCKASQDVSTAVDWYQQKPGKSPKLLINWASTRHTGVPSRFSGSGSGTDYTLTISSLQPEDFATYYCRQHYSTPFTFGQGTKLEIKRTDAAPSVFIFPPSDEQLKSGTASVVCLLNNFYPREAKVQWKVDNALQSGNSQESVTEQDSKDSTYSLSSTLTLSKADYEKHKVYACEVTHQGLSSPVTKSFNRGEC
notes: Humanized IgG1 kappa, fucosylated; also called AH02871HC + AH02877LC + V110D; AH02871HC_2877LC-110D
average potency of the ADCC response (Example 13) [4]: 3 nM | efficacy (Emax) relative to NNV024, ADCC FcγRIIIa-158V reporter assay [4]: 75% | potency (EC50) relative to rituximab, ADCC FcγRIIIa-158V reporter assay [4]: ~7 fold | Ki(NNV009)/Ki(NNV020 var.) (human CD37 [2]): 4.03 fold | fold affinity relative to NNV009 (human CD37 [5]): 4 to 7 fold | EC50 (human CD37 [3]): 1.24 nM | Ki (human CD37 [3]): 0.571 nM

B3: NNV024 (antibody, human IgG1)
heavy: not shown
light: B2 light
modifications: afucosylated N-glycan (GlymaxX technology)
notes: Humanized IgG1 kappa, same chains as NNV023, afucosylated; also called afucosylated NNV023; AH02871HC_2877LC-110D GlymaxX
EC50 (read off the curve) [6]: ~300 ng/mL | EC50 (read off the curve) [7]: ~2000 ng/mL | EC50 (read off the curve) [8]: ~400 ng/mL | EC50 (read off the curve) [9]: ~600 ng/mL | EC50 (read off the curve) [10]: ~40 ng/mL | EC50 (read off the curve) [11]: ~200 ng/mL | EC50 (read off the curve) [12]: ~3000 ng/mL | EC50 (read off the curve) [13]: ~800 ng/mL | binding result (human CD37 [14]): binds | EC50 (read off the curve) [15]: ~400 ng/mL | ADCC signaling at 1 µg/mL relative to obinutuzumab, patient-derived CLL cells [4]: ~3 fold | average Emax relative to rituximab, ADCC FcγRIIIa-158V reporter assay, ten B-NHL cell lines [4]: 1.36 fold | average potency (EC50) relative to rituximab, ADCC FcγRIIIa-158V reporter assay [4]: 35.5 fold | average potency of the ADCC response (Example 13) [4]: 0.6 nM | EC50 (read off the curve) [16]: ~700 ng/mL

B4: NNV003 (antibody, human IgG1, kappa)
heavy: not shown
light: DIVMTQSHKLLSTSVGDRVSITCKASQDVSTAVDWYQQKPGQSPKLLINWASTRHTGVPDRFTGSGSGTDYTLTISSMQAEDLALYYCRQHYSTPFTFGSGTKLEIKRTVAAPSVFIFPPSDEQLKSGTASVVCLLNNFYPREAKVQWKVDNALQSGNSQESVTEQDSKDSTYSLSSTLTLSKADYEKHKVYACEVTHQGLSSPVTKSFNRGEC
notes: Mouse/human IgG1 kappa chimera of lilotomab; also called chHH1; chimeric HH1
EC50 (read off the curve) [6]: ~300 ng/mL | EC50 (read off the curve) [7]: ~1000 ng/mL | EC50 (read off the curve) [8]: ~400 ng/mL | EC50 (read off the curve) [10]: ~40 ng/mL | EC50 (read off the curve) [11]: ~500 ng/mL | EC50 (read off the curve) [12]: ~3000 ng/mL | EC50 (read off the curve) [13]: ~800 ng/mL | EC50 (read off the curve) [16]: ~700 ng/mL
